Data as given in the nanobody polyreactivity screen of Harvey et al. (2022).

Experiment: yeast display, Sf9 membrane polyspecificity reagent, FACS + sequencing; frameworks hold sequencing errors
Summary of the method: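 Using colony PCR, genes from sorted yeast display clones were amplified, then sequenced on MiSeq at 2 × 250 and filtered by CDR length. The clones had been stained with 10% biotinylated, detergent-solubilized Sf9 membrane reagent for 1 hour at 4 °C and sorted by FACS into low and high (top ~1%) gates on anti-HA and streptavidin fluorescence. Polyreactivity labels come from the gate of origin.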

Row | Sequence | polyreactivity (PSR sort gate)
1 | QVQLQESGGGLVQAGGSLRLSCAASGTISYAPHMGWYRQAPGTDSELVAGITIGGTTYYADSVKGRFTISRDNAKNTVYLQMNSLSPGDTAVYYCAAHSEQYTPFYYWGQGTQVTVSS | low polyreactivity
2 | QVQLQESGGGLVQAGGSLRLSCAASGTITVLYKMGWFRLAPGKEREFVASINYGTSTYYADSVKGRFTVSRDSAKNTVYLQMNSLKPEDTAVYYCAAAYRWQDVYRYWGQGTQVTVSS | low polyreactivity
3 | QVQLQESGGGLVQAGGSLRLSCAASGTITVLYKMVWFRQAPGKEREFVASINYGTSTYYADSVKGRFTVSRDSAKNTVYLQMNSLKPEDTAVYYCAAAYRWQDVYRYWGQGTQVTVSS | low polyreactivity
4 | QVQLQESGGGLVQAGGSLRLSCAASGTNFYKDDMGWYRQAPGKEREFVAGIDRGGTTNCAGSVKGRFTISRDNAKNTVYLQMISLKPEDTAVYYCAAYYPDIYPFIYRGQGTQVTVSS | high polyreactivity
5 | QVQLQESGGGLVQAGGSLRLSCAASGYIFPRIYMGWYRQAPGKEREFDAGISYDAITNYADSVKGRYTISLDNAKNTVYLQMNSLKPEDTAVYYCAVSYYGTPLFTYWGQGTQVTVSS | high polyreactivity
6 | QVQLQESGGGLVQAGGSLRLSCAASGYISFSGYIGRYRQAPGKEREFVDSITPGRSTYYADSVKGRFTISRDNAENTVYLQMNSLKPEDTAVYYCAADDSRTEQHAYWGQGTQVTVSS | high polyreactivity
7 | QVQLQESGGGLVQAGGSLRLSCAASGYISHADEMGWYRQAPGKEHELVASISNGGSTNYADSVKGRFTISRDNAKNTVYQQMNSLKSEYTAVYYCAALTGQVDIHYYWCQGTQVTVSS | low polyreactivity
8 | QVQLQESGGGLVQAGGSLRLSCAASGYISHADEMGWYRQAPGLEHELVASISNGGSTNYADSVKGLFTISRDNAKNTEYLQLNSLKSEDTAVYYCAAWTGQVDIHYYWGQGTQVTVSS | low polyreactivity
9 | QVQLQESGGGLVQAGGSLRLSCAASGYISYFVGMGWYRQAPGKEREFVASIADGSYTYYADSVKGRFTISRDNAKNTVYLQRNSLKPEDTAVYYCAVEDSWTYRFDYWGQGTQVTVSS | high polyreactivity
10 | QVQLQESGGGLVQAGGSLRLSCAASGYISYLDFMGWYRQAPGKERELVAGITTGATTNYADSVKGRFTISRDNAKNIVYHQMNSLKPEDTAVYYCAVIGGDTRGHPYWGQGSQVTVSS | low polyreactivity
11 | QVQLQESGGGLVQAGGSLRLSCAASSNNSTLDDMCWYRQAPGKEREFVASIGSGGITNYADSVKGRFTISRDNAKNTVYLQMNSLKPEDTAVYYCAVLNQAYTDLIYWGQGTQVTVSS | high polyreactivity
12 | QVQLQESGGGLVQAGGSLRLSCAASSNNSTLDVMGWYRQAPGKEREFVASIGSGGITNYADSVKGRFTISRDNAKNTVYLQMNSLKPEDTAVYYCAVLNQAYTDLIYWGQGTLVTVSS | high polyreactivity
13 | QVQLQESGGGLVQAGGSLRLSCASSGYISQSSVMGWYRQAPGKEREFVASISYGATTYYADSVKGRFTISRDNAKNTVYLQTNSPKPEDTAVYYCAVWVKRGFSHRYWGQGTQVTVSS | high polyreactivity
14 | QVQLQESGGGLVQAGGSLRLSCAVSGTIFFPLDMGWYRQAPGREREYVAAIAEGTSTYYADSVKGRFTISRDNAKNTVYPQMYSLKPEDTAVYYCAAYRSTPQQFHYWGQGTQVTVSS | high polyreactivity
15 | QVQLQESGGGLVQAGGSLRLSCSASGTISDSGLMGWYRQAPGKERELVAGISSGGITNDADSVNRRFTISRDNALFTVYLQMNSLKPEDTALYWGEGTQVTVSS | low polyreactivity
16 | QVQLQESGGGLVQAGGSLRLSSAASGTIFRFRYMGWHRQAPGKERELVAGINGGTTTYYADSVIGRFTISRDNAKNTVYLQMNSLKPDDTAVYNCAAGASRLTYYDYWGQGTQVTVSS | low polyreactivity
17 | QVQLQESGGGLVQAGGSLRLTCAASGSISAVAAMGWYRQAPGKEREFAASVNWGTNTNYADSLKGRFTISRDNAINTLYLQMNSLNPEDTAVYYCGVLPDWETRHDYWGHGTQVTVSS | low polyreactivity
18 | QVQLQESGGGLVQAGGSLRPSCAASGNIFVPFKMGWYRMAPGKERELVASINRGSTTNYADSVKGRFTISRDNAKNTVYLQMISLKPEDTAVYYCAAIAYPDIPTYLDYDSDYFYWDQGTQVTVSS | high polyreactivity
19 | QVQLQESGGGLVQAGGSLRQSCAASGYIFPYYSMGWYRQAPGKERGLVACIAAGTTTNYADSVKGRFTISRDNAKNTVYLQMISLKPEDAAVYYCAALNAFNTGHWYWGQGTQVTVSS | low polyreactivity
20 | QVQLQESGGGLVQAGGSLRQSYAASGYIFPSLAMGWYRQAPGKEREFVAAIGRGSTNNYADSVKGRFTISRDNAIYTAYQQMNSLKPEDTAVYYCGAAASPLTRHLYWGQGTQVTVSS | low polyreactivity
21 | QVQLQESGGGLVQAGGSMRLSCAASGYNTIEVTRACFARRRAKNANLLPLLITVVLPIKRIAYNTISRDNAKNTVYLQMNSLKPEDTAVYNCAANTIGTDLYEYWGQGTQATVSS | low polyreactivity
22 | QVQLQESGGGLVQAGGSPRLSCAASDNIFPDSGMCWYRQAPGKERELVATIGFGATRNYADSVKGRFTISRDNAKNTVYLQMNSLQPEDTAVYYCAADPLNYQYFCYWGQGTQVTVSS | low polyreactivity

Row | Sequence | polyreactivity (PSR sort gate)
23 | QVQLQESGGGLVQAGGSQRLSCAASGNISVTGFMGCYRQAPGKERELVASIGIGGTTYYADSVKGRFSISRDNEKNTVYLQMNSLKPEDTAVYYCAARYLYYAYSYWGQGTQVTVSS | low polyreactivity
24 | QVQLQESGGGLVQAGGSQRLSCAASGYIFYFQYMGWYRQAPGKEREFVAAISDGANTNYADSVKGRFTISRDNAKNTEYLQMNSLKPEDTAVYYCAVYADENYYYIYWGQGTQVTVRS | low polyreactivity
25 | QVQLQESGGGLVQAGGSQRLSCSASGYIFYFQYMGWYRQAPGKEREFVAAISDGANTNYADSVKGRFNISRDNAKNTEYLQMNSLKPEDTAVYYCAARSFFKMYYWGQGTQVTVSS | low polyreactivity
26 | QVQLQESGGGLVQAGGSRRLSCAASGTIFTARFMGWYRQATGKERELVSTITDGGNTNHAESVKCRFTISRDNAKNTGSLQMNSLKPEYAAVYYCAAGEVDNDTLLYWGQGSQVTVSS | low polyreactivity
27 | QVQLQESGGGLVQASGSLRLSCAASGNIFPDYVMGWYRLAPGKEREFVANITGGSTTNYADSVKGRFTISRDNAKNTVYLQMNSLKPEDTAVYYCAVNFGTVVLYLYWGQGTQVTVSS | high polyreactivity
28 | QVQLQESGGGLVQEGGSLRLSCAASGNISPPADMGWYRQAPGKERELVASIGTGGTTNYADSVKGRFTISRDNAKNTVYLQMNSLKPDDTAVYYCAAVRYEYNPYDYWGEGTQVTVSS | low polyreactivity
29 | QVQLQESGGGLVQVGGSLRLSCAASGTIFIYGFLGWNRQAPGKERELVASINLGGITNYADSVKGRFTISRDNATNTVYLQMISLKPEDTAVYYCAAYVVTGQNYGYWGQGTQVTVSS | low polyreactivity
30 | QVQLQESGGGLVRAGGSLRLSCAASGYISTSIAMGWYRQAPGKERELVASFGGGAITNYADSVKGFTISRDNGKNSVYLQMNSLKPEDTAVYYCAVYHGDRGYYSYWGQGTQVTVSS | low polyreactivity
31 | QVQLQESGGGMEQAGGSLRLSCAASGYISWADYMVWYRQAPGKERELVAGIGYGSTTYYADSVKGRFTISRANAKNTAYLQMNSLKPEDTAVYYCAVGWYRDTAYKYWGQGTQVTVSS | low polyreactivity
32 | QVQLQESGGGMVQAGGSLLWCAASGTISYNREMGWYRQAPGKERELVAGIGVGTITYYADSVKGRFTIIRDNAKNTVYLQMNSLKPEDTAVYYCAAHIDGIDSHAYCGQGTQVTVSS | low polyreactivity
33 | QVQLQESGGGMVQAGGSLRLSCAASGYISWADYMGWYRQAPGKERELVAGIGYGSTTYYADSVKGRFTISRDNAKNTAYLQMNSLKPEDTAVYYCSVGWYRDTAYKYWGQGTQVTVSS | low polyreactivity
34 | QVQLQESGGGMVQAGGSLRLSCAASGYISWADYMVWYRQAPGKERELVAGIGYGSTTYYADSVKGRFTISRANAKNTAYLQMNSLKPEDTAVYYCAVGWYRDTAYKYWGQGTQVTVSS | low polyreactivity
35 | QVQLQESGGGPVLAGGSLRLSCAASGTIFVRLDMGWYRPAPGKEREFVATIGSGSSTYYADSVKGSFTISRDNVKNTVYLQMNSLQPEDTAVYYCAVSAAEQSRHYYWDQGTQVTVSS | low polyreactivity
36 | QVQLQESGGLVQAGGSLRLSCAASGSISGRNVMGWYRQAPGKEREFVASITDGSSTNYADSVKGRFTISRDNAKNTVYLQMNSLKPKDTAVYYCAAYAQRAKSFGYWGRGTQVTVSS | low polyreactivity
37 | QVQLQESGGRLVQAGGSMRLSCAASGTISDSGLMGWYRQAPGKERELVAGISSGGITNYADSVKGRFTISRDNAKNTVSLQMNSLKPEDTAVYWGQGTQVTVSS | low polyreactivity
38 | QVQLQESGGVQAGGSLRLSCAASGYISRSDVMGWYRQAPGKERELVATINNGTITYYADSVKGRFTISRDNAKNTVYLQMNSLIPEDTAVHYCAVVQSDTDSLYYWGQGTQVTVSS | low polyreactivity
39 | QVQLQESGGVQAGGSLRLSCAASGYITRSDVMGSYRQAPGKERELVATINNGTMTYYADSEKGRYTISRDNAKKTVYLQKNSQKPEDTAVHYCAVDQSDTDSLYYWGQGTQVTVSS | low polyreactivity
40 | QVQLQESGGVQAGGSLRLSSAATGYIARSDDMGWYRQAPGKERELVATINNGTITYYADSVKGRFTISRDNAKNTVYLQMNSLKPEDTAVHYCAVVQSDTDSLYYWGQGTQVSVSS | low polyreactivity
41 | QVQLQESGRRPGAAGGSPRMSCAASGNIFWVAVMGRYRQAPGKERELGASIGFGCTTYYADSVKCRFTISRDNAKNTVYLQMISLKPEDTAVYYCAAPHYDWGELDYWGQGTQVPVSS | low polyreactivity
42 | QVQLQESGSGLVQAGGSLRLSCAASGNISQYNDIGWYRQAPGKEREPVATINSGSITYYADSVKGRLTISRDNAKNTVYLEMNSLKPEDTAVYYGAVKQHGFVYLEYWGQGTQVTVSR | high polyreactivity
43 | QVQLQESGSGLVQAGGSLRLSCAASGYISLGDNMGWYRQAPGKEREFVATISVGGITYYVDSVKGRFTISRDIAKNTVYLQMNSLKPEDTAVYYCADLDIYYFRYYYWGQGTQVTVSS | low polyreactivity
44 | QVQLQESRGGLVQAGGSLRLSCAATGTIFTDRIMGWYLQAPGKERELVAGISPGTSTNYADSVKGRFTISRDNEKNTVYLQMNSLKPEDTAVYYCAADWSTGNTLPYWGQGSQVTVSS | high polyreactivity
